Test results published in patent US10765761B2, “Nucleic acid condensing peptide, nucleic acid condensing peptide set, nucleic acid delivery carrier, nucleic acid delivery method, cell production method, cell detection method and kit” (KABUSHIKI KAISHA TOSHIBA, priority 2016, dated 2020).

Experiments:
plasmid vector (pDNA) [1] = assay: Average particle diameter and Zeta potential of peptide-nucleic-acid complexes (zetasizer), Example 1; assay type: physicochemical; conditions: for characteristics of condensing the nucleic acid: judged from particle diameter and its dispersion (Table 2, FIGS. 4 and 5)
Protocol: The condensability of the nucleic acid by the peptide of the embodiment and the potential of the peptide-nucleic-acid complex were evaluated.
The peptides were each dissolved in 10 mM of HEPES (pH: 5.3) to prepare several peptide solutions having different peptide concentrations.
For the protamine, three peptide solutions were prepared to have peptide concentrations of: (1) 2.1 mg/ml, (2) 2.4 mg/ml and (3) 2.7 mg/ml. For the mHP-4, four peptide solutions were prepared to have peptide concentrations of: (4) 1.8 mg/ml, (5) 2.1 mg/ml, (6) 2.4 mg/ml and (7) 2.7 mg/ml. For the mHP-1, three peptide solutions were prepared to have peptide concentrations of: (8) 2.1 mg/ml, (9) 2.4 mg/ml and (10) 2.7 mg/ml. For the mHP-2, five peptide solutions were prepared to have peptide concentrations of: (11) 1.2 mg/ml, (12) 1.5 mg/ml, (13) 2.1 mg/ml, (14) 2.4 mg/ml and (15) 2.7 mg/ml. For the mHP-3, three peptide solutions were prepared to have peptide concentrations of: (16) 2.1 mg/ml, (17) 2.4 mg/ml and (18) 2.7 mg/ml. Further, plasmid vector (pDNA) was diluted with purified water to prepare a nucleic acid solution having a pDNA concentration of 3.0 mg/ml.
18 sets of nucleic acid solutions (90 μL) put in tubes were prepared and the peptide solutions (1) to (18) (90 μL) described above were dropped respectively therein and mixed while stirring each, to condense the nucleic acids. Thus, the peptide-nucleic-acid complexes were obtained. Then, the mixtures were each diluted with purified water to 25-fold to produce peptide-nucleic-acid solutions. Further, as references, samples containing only each respective peptide were also prepared without adding the nucleic acid solutions thereto.
The average particle diameter and Zeta potential of each of the peptide-nucleic-acid complexes were investigated using the peptide-nucleic-acid solutions. The average particle diameter and Zeta potential were measured using a zetasizer.

plasmid vector (pDNA) [2] = assay: Gel retardation assay: condensability and dissociation, Example 2; assay type: binding; conditions: 0.8% agarose gel, samples of any concentration (FIG. 6); for dissociation: PGA (+) sample; for condensability: PGA (-) sample
Protocol: The condensability of the nucleic acid by the peptide of the embodiment and the dissociation of the peptide and the nucleic acid were estimated by a gel retardation assay.
As samples for the condensability evaluation, 18 sets of 8.0 μL of 10 mM-HEPES (pH: 5.3) were prepared and 1.0 μL of the respective peptide-nucleic-acid solutions of Example 1 and […] were added thereto and mixed, thus preparing mixtures. As samples for the dissociation evaluation, 1.0 μL of peptide-nucleic-acid solutions and 1.0 μL of poly-glutamic-acid (PGA) solutions were added to 8.0 μL of 10 mM-HEPES solutions (pH: 5.3) and mixed, thereby preparing mixtures. After they were let stand still for 15 minutes at room temperature, 1.0 μL of an electrophoretic buffer (50%-sucrose solution) was added to each mixture, and they were mixed well, to carry out electrophoresis with a 0.8%-agarose gel. After the electrophoresis, the nucleic acid dyed with ethidium bromide was visualized by UV irradiation, and the nucleic acids condensed by the peptide and the nucleic acid dissociating with the peptide and moving into a gel were detected.
FIG. 6 is a photograph showing the agarose gel subjected to UV irradiation. Of two lanes indicated by the numbers of the respective samples, the left lane indicates the results of a PGA (−) sample (sample for the condensability evaluation) and the right lane for those of a PGA (+) sample (sample for the dissociation evaluation). When an integrated band with a large molecular weight, which strongly shines is observed in the left lane, it was evaluated as a high condensability. […] The mHP-1 and mHP-3 were excellent both in condensability and dissociation in the samples of any concentration. In particular, they were excellent in the peptide-nucleic-acid solutions (8) and (16).

nucleic acid = assay: Gel retardation assay: encapsulation of nucleic acid to liposome, Example 4; conditions: Complex with SDS 1% (liposome cleaved), 0.8% agarose gel (FIG. 9)
Protocol: The encapsulation of nucleic acid to liposome by the peptide of the embodiment was evaluated with a gel retardation assay.
As samples for the encapsulation evaluation, two sets of 8.0 μL of 10 mM-HEPES (pH: 7.0) were prepared and 1.0 μL of solutions of Complex respectively containing the mHP-1 or mHP-3 of Example 3 and sodium dodecyl sulfate (SDS, the final concentration: 1%) which cleavages liposome were added thereto, to prepare mixtures. In addition, as controls, a mixture to which 1.0 μL of a poly-glutamic-acid (PGA) solution was added in place of SDS, and a sample which contains neither SDS nor PGA were prepared. After the solutions were let stand still for 15 minutes at room temperature, 1.0 μL of an electrophoretic buffer (50%-sucrose solution) was added to each mixture, and they were mixed well, to carry out electrophoresis with a 0.8%-agarose gel. After the electrophoresis, the gel was immersed in an ethidium bromide solution to dye the nucleic acid and the gel was photographed while irradiating it with UV, thus detecting the nucleic acid.
FIG. 9 is a photograph taken by irradiating the agarose gel with UV.

[3] = pDNA/peptide 1/0.7 (peptide conc. 2.1 mg/mL)
[4] = pDNA/peptide 1/0.8 (peptide conc. 2.4 mg/mL)
[5] = pDNA/peptide 1/0.9 (peptide conc. 2.7 mg/mL)
[6] = peptide solely, no nucleic acid (Reference)

Sequence | characteristics of condensing the nucleic acid (plasmid vector (pDNA) [1]) | Average particle diameter (zAve) (plasmid vector (pDNA) [1]; [3]) | Zeta potential (plasmid vector (pDNA) [1]; [3]) | Average particle diameter (zAve) (plasmid vector (pDNA) [1]; [4]) | Zeta potential (plasmid vector (pDNA) [1]; [4]) | Average particle diameter (zAve) (plasmid vector (pDNA) [1]; [5]) | Zeta potential (plasmid vector (pDNA) [1]; [5]) | Average particle diameter (zAve) (plasmid vector (pDNA) [1]; [6]) | Zeta potential (plasmid vector (pDNA) [1]; [6]) | dissociation (plasmid vector (pDNA) [2]) | condensability (plasmid vector (pDNA) [2]) | encapsulation of nucleic acid in liposome (nucleic acid)
RQRQRGGRRRRRR (Nucleic acid condensing peptide) [mHP-3] | excellent | 135.8 nm | −28.1 mV | 134.9 nm | −25.9 mV | 148.2 nm | −28.3 mV | 322.9 nm | 17.0 mV | excellent | excellent | encapsulated well
RQRQRYYRQRQRGGRRRRRR (Nucleic acid condensing peptide) [mHP-1] | excellent | 124.0 nm | −28.2 mV | 133.4 nm | −26.7 mV | 158.0 nm | −25.5 mV | 444.0 nm | 37.2 mV | excellent | excellent | encapsulated well
